Reference: the Immune Epitope Database (IEDB)
pKd: −log10 of the molar value.

Legend:
HLA-A*02:50 = assay: IEDB peptide-MHC binding, purified MHC/competitive/fluorescence; filed as Kd, often an IC50 or EC50 that approximates it; ≥ and ≤ were set here for values at or beyond the usual limits of such assays
HLA-A*26:01 [1] = assay: IEDB peptide-MHC binding, purified MHC/direct/fluorescence; filed as Kd, often an IC50 or EC50 that approximates it; ≥ and ≤ were set here for values at or beyond the usual limits of such assays
HLA-B*40:01 = assay: as above
HLA-B*27:05 = assay: as above
HLA-B*58:01 [2] = assay: as above
HLA-B*15:01 [3] = assay: as above
HLA-A*02:01 [4] = assay: as above
HLA-A*03:01 [5] = assay: as above
HLA-B*08:01 [6] = assay: as above
HLA-A*69:01 [7] = assay: as above
HLA-B*07:02 = assay: as above
HLA-A*01:01 = assay: as above
HLA-A*31:01 = assay: as above
HLA-B*35:01 [8] = assay: as above
HLA-A*30:01 = assay: as above
HLA-A*24:03 = assay: as above
HLA-B*44:02 = assay: as above
HLA-A*11:01 = assay: as above
HLA-A*02:16 [9] = assay: IEDB peptide-MHC binding, purified MHC/competitive/fluorescence; filed as Kd, often an IC50 or EC50 that approximates it; ≥ and ≤ were set here for values at or beyond the usual limits of such assays
HLA-A*02:01 [10] = assay: as above
HLA-B*08:01 [11] = assay: as above
HLA-C*05:01 = assay: IEDB peptide-MHC binding, purified MHC/direct/fluorescence; filed as Kd, often an IC50 or EC50 that approximates it; ≥ and ≤ were set here for values at or beyond the usual limits of such assays
HLA-A*02:12 [12] = assay: as above; settings: source organism: Vibrio vulnificus CMCP6
HLA-A*02:16 [13] = assay: as above; settings: source organism: Vibrio vulnificus CMCP6
HLA-B*35:01 [14] = assay: IEDB peptide-MHC binding, purified MHC/competitive/fluorescence; filed as Kd, often an IC50 or EC50 that approximates it; ≥ and ≤ were set here for values at or beyond the usual limits of such assays; settings: source organism: Escherichia coli O139:H28 str. E24377A
HLA-B*58:01 [15] = assay: as above; settings: source organism: Escherichia coli O139:H28 str. E24377A
HLA-B*15:01 [16] = assay: as above
HLA-C*03:03 = assay: IEDB peptide-MHC binding, purified MHC/direct/fluorescence; filed as Kd, often an IC50 or EC50 that approximates it; ≥ and ≤ were set here for values at or beyond the usual limits of such assays; settings: source organism: Escherichia coli O139:H28 str. E24377A
HLA-B*27:03 = assay: IEDB peptide-MHC binding, purified MHC/competitive/fluorescence; filed as Kd, often an IC50 or EC50 that approximates it; ≥ and ≤ were set here for values at or beyond the usual limits of such assays; settings: source organism: Salmonella enterica subsp. enterica serovar Typhi
HLA-A*02:03 = assay: as above; settings: source organism: Salmonella enterica subsp. enterica serovar Typhi
HLA-B*39:01 = assay: as above; settings: source organism: Salmonella enterica subsp. enterica serovar Typhi
HLA-A*26:01 [17] = assay: as above; settings: source organism: Salmonella enterica subsp. enterica serovar Typhi
HLA-A*02:19 = assay: as above; settings: source organism: Salmonella enterica subsp. enterica serovar Typhi
HLA-B*18:01 = assay: as above; settings: source organism: Salmonella enterica subsp. enterica serovar Typhi
HLA-A*02:12 [18] = assay: as above; settings: source organism: Salmonella enterica subsp. enterica serovar Typhi
HLA-A*02:11 = assay: as above; settings: source organism: Salmonella enterica subsp. enterica serovar Typhi
HLA-B*57:01 = assay: as above; settings: source organism: Salmonella enterica subsp. enterica serovar Typhi
HLA-B*46:01 = assay: as above; settings: source organism: Salmonella enterica subsp. enterica serovar Typhi
HLA-A*03:01 [19] = assay: as above; settings: source organism: Salmonella enterica subsp. enterica serovar Typhi
HLA-B*51:01 = assay: as above; settings: source organism: Salmonella enterica subsp. enterica serovar Typhi
HLA-A*69:01 [20] = assay: as above; settings: source organism: Salmonella enterica subsp. enterica serovar Typhi
HLA-A*68:02 = assay: as above; settings: source organism: Salmonella enterica subsp. enterica serovar Typhi
[21] = source organism: Serratia marcescens
[22] = source organism: Vibrio vulnificus
[23] = source organism: Francisella tularensis subsp. holarctica OSU18
[24] = source organism: Vibrio cholerae
[25] = source organism: Vibrio vulnificus YJ016
[26] = source organism: Escherichia coli O139:H28 str. E24377A
[27] = source organism: Salmonella enterica subsp. enterica serovar Typhi

Sequence: LIPDGDGEV
- pKd (HLA-A*02:50; [21]): 8.77
- pKd (HLA-A*26:01 [1]; [21]): ≤ 4.70
- pKd (HLA-B*40:01; [21]): ≤ 4.70
- pKd (HLA-B*27:05; [21]): ≤ 4.70
- pKd (HLA-B*58:01 [2]; [21]): ≤ 4.70
- pKd (HLA-B*15:01 [3]; [21]): ≤ 4.70
- pKd (HLA-A*02:01 [4]; [21]): ≤ 4.70
- pKd (HLA-A*03:01 [5]; [21]): ≤ 4.70
- pKd (HLA-B*08:01 [6]; [21]): ≤ 4.70
- pKd (HLA-A*69:01 [7]; [21]): ≤ 4.70
- pKd (HLA-B*07:02; [21]): ≤ 4.70
- pKd (HLA-A*01:01; [21]): ≤ 4.70
- pKd (HLA-A*31:01; [21]): ≤ 4.70

Sequence: VNGVKGIQF
- pKd (HLA-B*35:01 [8]; [22]): 6.00
- pKd (HLA-A*26:01 [1]; [22]): ≤ 4.70
- pKd (HLA-A*30:01; [22]): ≤ 4.70
- pKd (HLA-B*40:01; [22]): ≤ 4.70
- pKd (HLA-A*24:03; [22]): ≤ 4.70
- pKd (HLA-B*27:05; [22]): ≤ 4.70
- pKd (HLA-B*44:02; [22]): ≤ 4.70
- pKd (HLA-B*58:01 [2]; [22]): ≤ 4.70
- pKd (HLA-B*15:01 [3]; [22]): ≤ 4.70
- pKd (HLA-A*02:01 [4]; [22]): ≤ 4.70
- pKd (HLA-A*03:01 [5]; [22]): ≤ 4.70
- pKd (HLA-B*08:01 [6]; [22]): ≤ 4.70
- pKd (HLA-A*69:01 [7]; [22]): ≤ 4.70
- pKd (HLA-A*01:01; [22]): ≤ 4.70
- pKd (HLA-A*11:01; [22]): ≤ 4.70
- pKd (HLA-A*31:01; [22]): ≤ 4.70

Sequence: FGLLPEHYV
- pKd (HLA-A*02:16 [9]; [23]): 7.22
- pKd (HLA-A*02:01 [10]; [23]): 6.92

Sequence: EIFPNIKIY
- pKd (HLA-B*35:01 [8]; [24]): 6.79
- pKd (HLA-A*26:01 [1]; [24]): 7.13
- pKd (HLA-B*40:01; [24]): ≤ 4.70
- pKd (HLA-B*27:05; [24]): ≤ 4.70
- pKd (HLA-B*44:02; [24]): ≤ 4.70
- pKd (HLA-B*58:01 [2]; [24]): ≤ 4.70
- pKd (HLA-B*15:01 [3]; [24]): 6.33
- pKd (HLA-A*02:01 [4]; [24]): ≤ 4.70
- pKd (HLA-A*03:01 [5]; [24]): ≤ 4.70
- pKd (HLA-B*08:01 [6]; [24]): ≤ 4.70
- pKd (HLA-A*69:01 [7]; [24]): ≤ 4.70
- pKd (HLA-B*07:02; [24]): ≤ 4.70
- pKd (HLA-A*01:01; [24]): ≤ 4.70
- pKd (HLA-A*11:01; [24]): ≤ 4.70
- pKd (HLA-A*31:01; [24]): ≤ 4.70

Sequence: QLKYKYPAL
- pKd (HLA-B*08:01 [11]; source organism: Influenza A virus (A/Tokyo/1566/98(H3N2))): 7.17

Sequence: MSDWGHITV
- pKd (HLA-A*02:50; [25]): 8.01
- pKd (HLA-C*05:01; [25]): ≥ 9.00
- pKd (HLA-A*02:12 [12]): 7.25
- pKd (HLA-A*02:16 [13]): 7.54
- pKd (HLA-A*02:01 [4]; [22]): 6.56
- pKd (HLA-A*69:01 [7]; [22]): ≥ 9.00

Sequence: FPRSAERAG
- pKd (HLA-B*35:01 [8]; [24]): 7.36
- pKd (HLA-A*26:01 [1]; [24]): ≤ 4.70
- pKd (HLA-A*30:01; [24]): ≤ 5.00
- pKd (HLA-B*40:01; [24]): ≤ 4.70
- pKd (HLA-A*24:03; [24]): ≤ 4.70
- pKd (HLA-B*27:05; [24]): ≤ 4.70
- pKd (HLA-B*44:02; [24]): ≤ 4.70
- pKd (HLA-B*58:01 [2]; [24]): ≤ 4.70
- pKd (HLA-B*15:01 [3]; [24]): ≤ 4.70
- pKd (HLA-A*02:01 [4]; [24]): ≤ 4.70
- pKd (HLA-A*03:01 [5]; [24]): ≤ 4.70
- pKd (HLA-B*08:01 [6]; [24]): ≤ 4.70
- pKd (HLA-A*69:01 [7]; [24]): ≤ 4.70
- pKd (HLA-B*07:02; [24]): 6.70
- pKd (HLA-A*01:01; [24]): ≤ 4.70
- pKd (HLA-A*11:01; [24]): ≤ 4.70
- pKd (HLA-A*31:01; [24]): ≤ 4.70

Sequence: DLLKPNYAL
- pKd (HLA-B*08:01 [11]; [26]): 5.40

Sequence: YALATQVEF
- pKd (HLA-B*35:01 [14]): ≥ 10.00
- pKd (HLA-B*58:01 [15]): 8.35
- pKd (HLA-B*15:01 [16]; [26]): 7.38
- pKd (HLA-B*08:01 [11]; [26]): 5.43
- pKd (HLA-C*05:01; [26]): 5.58
- pKd (HLA-C*03:03): ≥ 9.00

Sequence: KTVRYWHRF
- pKd (HLA-B*27:03): ≤ 4.70
- pKd (HLA-A*02:03): ≤ 4.70
- pKd (HLA-B*39:01): ≤ 4.70
- pKd (HLA-A*26:01 [17]): ≤ 4.70
- pKd (HLA-A*02:19): ≤ 4.70
- pKd (HLA-B*18:01): ≤ 4.70
- pKd (HLA-A*02:12 [18]): ≤ 4.70
- pKd (HLA-A*02:11): ≤ 4.70
- pKd (HLA-A*02:16 [9]; [27]): ≤ 4.70
- pKd (HLA-B*15:01 [16]; [27]): ≤ 4.70
- pKd (HLA-A*02:01 [10]; [27]): ≤ 4.70
- pKd (HLA-B*57:01): 7.39
- pKd (HLA-B*46:01): ≤ 4.70
- pKd (HLA-A*03:01 [19]): ≤ 4.70
- pKd (HLA-B*51:01): ≤ 4.70
- pKd (HLA-A*69:01 [20]): ≤ 4.70
- pKd (HLA-A*68:02): ≤ 4.70
